{"source": "patent US12329806B2", "about": "“Compound for modulating rlr, tlr, oas and/or oncostatin m pathways, use thereof for preparing a medicine, composition, method for modulating said pathways and method of treatment” (Instituto Butantan, priority 2018, dated 2025)", "experiment_in_all_cases": "Cell viability tests (survival rate), previous experiment", "settings_in_all_cases": "rounded values", "key": {"[1]": {"tested_on": "SK-MEL-28 cells", "type": "cell-based, human", "source_text": "(§1) ER stress also promotes mitochondrial dysfunction, Cytochrome c release, PARP cleavage, Ca+^2 mobilization and caspase activation in SK-MEL-28 and Mia-PaCa-2 cells, positively regulating CASP3. The survival rate of the previous experiment, calculated using cell viability tests, is herein summarized: Mia-PaCa-2 67%, SK-MEL-28 44%, SK-MEL-5 42%, non-tumoral human fibroblasts 100% (rounded values). These numbers indicate that part of the cells possibly survives through a positive unfolded protein response (UPR) and part dies. […] Furthermore, autophagy could also be evoked to recover a global tissue homeostasis, and, in this case, there is the signature of immunogenic cell death (ICD). It is believed that the ICD could explain this."}, "[2]": {"tested_on": "Mia-PaCa-2 cells", "type": "cell-based, human", "source_text": "as §1"}, "[3]": {"tested_on": "SK-MEL-5", "type": "cell-based", "source_text": "as §1"}, "[4]": {"tested_on": "non-tumoral human fibroblasts", "type": "cell-based", "source_text": "as §1"}}, "data": [{"molecule": "Amblyomin-X: recombinant Kunitz type protein identified in a cDNA library of Amblyomma sculptum tick salivary glands (protein, Amblyomin-X, recombinant Kunitz type protein identified in a cDNA library of Amblyomma sculptum tick salivary glands) MRQLAVLALVIFTGMCVESQSANSKAVCNLPKLAGDETCSNKTEIRWYYNGTACEAFIFKGCGGNDNNFDRVDDCQRLCEEQTHFHFESPKLICFKVQDYWILNDIMKKNLTGISLKSEEEDADSGEID", "values": [{"measurement": "survival rate", "setting": "[1]", "value": 44, "unit": "%"}, {"measurement": "survival rate", "setting": "[2]", "value": 67, "unit": "%"}, {"measurement": "survival rate", "setting": "[3]", "value": 42, "unit": "%"}, {"measurement": "survival rate", "setting": "[4]", "value": 100, "unit": "%"}]}]}
